Test results taken from PMC6009666, “DNA-mediated dimerization on a compact sequence signature controls enhancer engagement and regulation by FOXA1”.

T1: FOXA1 DBD (Homo sapiens, UniProt P55317 158-272)
T1 sequence: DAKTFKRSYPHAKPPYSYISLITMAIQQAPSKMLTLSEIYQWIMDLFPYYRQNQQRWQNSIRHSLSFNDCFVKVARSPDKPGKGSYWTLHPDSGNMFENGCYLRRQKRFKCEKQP

B1: FOXA1 monomer element (dsDNA)
DNA 1: CCGCCGCCGTGTTTACTTTGCCGCCGCC
DNA 2: GGCGGCGGCAAAGTAAACACGGCGGCGG

Tests used:
FOXA1 DBD [1] = target: T1, FOXA1 DBD; experiment: EMSA; settings: monomer binding not affected; EMSA: 20 mM Tris-HCl pH 8.0, 100 mM KCl, 50 uM ZnCl2, 0.1 mg/ml BSA, 10% glycerol, 0.1% Igepal CA630, 2 mM beta-mercaptoethanol, 1 h at 4 C; 1-100 nM dsDNA; 12%
FOXA1 DBD [2] = target: T1, FOXA1 DBD; experiment: EMSA; 1 nM DNA; monomer; n=3; EMSA: 20 mM Tris-HCl pH 8.0, 100 mM KCl, 50 uM ZnCl2, 0.1 mg/ml BSA, 10% glycerol, 0.1% Igepal CA630, 2 mM beta-mercaptoethanol, 1 h at 4 C; 1-100 nM dsDNA; 12% native PAGE (6% for full length); settings: protein: recombinant; tags: His-tag implied (pNic28-Bsa4, Ni-NTA); label: 5' Cy5 forward strand

| Molecule | binding signal (fold reduction of omega vs major allele) (FOXA1 DBD [1]) | Kd (FOXA1 DBD [2]) |
| --- | --- | --- |
| rs2941742 minor allele | 20 |  |
| B1 |  | 2.4 ± 1.06 nM |
